# Results from IntAct's records for PubMed 29039417.
# B1: Protein PTHB1 (Homo sapiens), Q3SYG4 (parent)
# chain: MSLFKARDWWSTILGDKEEFDQGCLCLANVDNSGNGQDKIIVGSFMGYLRIFSPHPAKTGDGAQAEDLLLEVDLRDPVLQVEVGKFVSGTEMLHLAVLHSRKLCVYSVSGTLGNVEHGNQCQMKLMYEHNLQRTACNMTYGSFGGVKGRDLICIQSMDGMLMVFEQESYAFGRFLPGFLLPGPLAYSSRTDSFLTVSSCQQVESYKYQVLAFATDADKRQETEQQKLGSGKRLVVDWTLNIGEQALDICIVSFNQSASSVFVLGERNFFCLKDNGQIRFMKKLDWSPSCFLPYCSVSEGTINTLIGNHNNMLHIYQDVTLKWATQLPHIPVAVRVGCLHDLKGVIVTLSDDGHLQCSYLGTDPSLFQAPNVQSRELNYDELDVEMKELQKIIKDVNKSQGVWPMTEREDDLNVSVVVSPNFDSVSQATDVEVGTDLVPSVTVKVTLQNRVILQKAKLSVYVQPPLELTCDQFTFEFMTPDLTRTVSFSVYLKRSYTPSELEGNAVVSYSRPTDRNPDGIPRVIQCKFRLPLKLICLPGQPSKTASHKITIDTNKSPVSLLSLFPGFASQSDDDQVNVMGFHFLGGARITVLASKTSQRYRIQSEQFEDLWLITNELILRLQEYFEKQGVKDFACSFSGSIPLQEYFELIDHHFELRINGEKLEELLSERAVQFRAIQRRLLARFKDKTPAPLQHLDTLLDGTYKQVIALADAVEENQGNLFQSFTRLKSATHLVILLIALWQKLSADQVAILEAAFLPLQEDTQELGWEETVDAAISHLLKTCLSKSSKEQALNLNSQLNIPKDTSQLKKHITLLCDRLSKGGRLCLSTDAAAPQTMVMPGGCTTIPESDLEERSVEQDSTELFTNHRHLTAETPRPEVSPLQGVSE
# partner: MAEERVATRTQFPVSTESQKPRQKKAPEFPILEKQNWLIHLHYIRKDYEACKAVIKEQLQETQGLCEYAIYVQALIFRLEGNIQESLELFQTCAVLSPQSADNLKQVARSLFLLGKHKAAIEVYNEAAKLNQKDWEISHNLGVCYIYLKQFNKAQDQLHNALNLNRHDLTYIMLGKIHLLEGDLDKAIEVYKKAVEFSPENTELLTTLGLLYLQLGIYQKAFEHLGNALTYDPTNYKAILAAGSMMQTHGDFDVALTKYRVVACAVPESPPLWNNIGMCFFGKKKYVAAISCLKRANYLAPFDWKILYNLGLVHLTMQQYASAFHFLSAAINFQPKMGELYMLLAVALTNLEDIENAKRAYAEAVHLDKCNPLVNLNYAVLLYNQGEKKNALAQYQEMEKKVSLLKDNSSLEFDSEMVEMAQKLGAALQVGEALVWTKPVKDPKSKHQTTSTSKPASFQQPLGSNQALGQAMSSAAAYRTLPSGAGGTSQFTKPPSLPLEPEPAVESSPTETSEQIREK
# Variants of: B1
# Settings: with bbs4_human BBS4, Q96RK4
row,effect of a mutation on the interaction,Variant
1,disrupting interaction strength,S723P
2,with no effect,S723E
3,with no effect,S723A
4,disrupting interaction strength,S723K
5,with no effect,V734K
6,with no effect,V734E
7,with no effect,V734A
8,with no effect,V713A
9,with no effect,V713K
10,with no effect,V713E
11,with no effect,G718K
12,disrupting interaction strength,G718D
13,with no effect,G718A
14,disrupting interaction strength,G718S
15,with no effect,G718E
16,disrupting interaction strength,G718T
17,with no effect,F724K
18,disrupting interaction strength,F724E
19,with no effect,F724A
20,with no effect,N716K
21,with no effect,N716A
22,with no effect,N716E

row,effect of a mutation on the interaction,Variant
1,with no effect,I735A
2,with no effect,I735K
3,with no effect,I735E
4,with no effect,A712E
5,with no effect,A712K
6,with no effect,L720K
7,with no effect,L720E
8,with no effect,L720A
9,with no effect,F721A
10,with no effect,F721E
11,disrupting interaction strength,F721K
12,with no effect,T731A
13,with no effect,T731K
14,disrupting interaction strength,T731I
15,disrupting interaction strength,T731E
16,with no effect,T725K
17,with no effect,T725A
18,with no effect,T725E
19,disrupting interaction strength,E715K
20,with no effect,E715A
21,with no effect,D711E
22,with no effect,D711K

row,effect of a mutation on the interaction,Variant
1,with no effect,S729E
2,with no effect,S729A
3,with no effect,S729K
4,with no effect,Q722E
5,with no effect,Q722A
6,with no effect,Q722K
7,with no effect,R726A
8,with no effect,R726E
9,with no effect,R726K
10,disrupting interaction strength,I738K
11,disrupting interaction strength,I738A
12,disrupting interaction strength,I738E
13,with no effect,L727E
14,with no effect,L727A
15,disrupting interaction strength,L727P
16,with no effect,L727K
17,with no effect,H732A
18,with no effect,H732K
19,with no effect,H732E
20,with no effect,K728E
21,with no effect,K728A
22,disrupting interaction strength,K728R

row,effect of a mutation on the interaction,Variant
1,with no effect,E714A
2,with no effect,E714K
3,with no effect,L733K
4,disrupting interaction strength,L733A
5,with no effect,L733E
6,with no effect,N719E
7,with no effect,N719K
8,disrupting interaction strength,N719A
9,with no effect,A730K
10,with no effect,A730E
11,with no effect,Q717K
12,with no effect,Q717A
13,with no effect,Q717E
14,with no effect,L737K
15,with no effect,L737A
16,with no effect,L737E
17,with no effect,L736A
18,with no effect,L736E
19,with no effect,L736K
